Experimental data from US11891634B2, “PDE5A destabilizing domains” (The Board of Trustees of the Leland Stanford Junior …, priority 2017, dated 2024).

What was measured:
[1] = tested on: NIH3T3 cells expressing AcGFP-PDE5A fusions; test: FACS analysis of C-terminal PDE5A mutants (AcGFP-PDE5A fusions), Sildenafil vs vehicle; assay type: cell-based, mouse; settings: Table 2, 24 hours; for Mean Fluorescence intensity: NIH3T3
Procedure: The NIH3T3 cell line was cultured in DMEM supplemented with 10% heat-inactivated donor bovine serum (Invitrogen), 2 mM glutamine, 100 U/ml penicillin and 100 μg/ml streptomycin.
The ΦNX ecotropic packaging cell line was transfected using standard Lipofectamine 2000 protocols. Viral supernatants were harvested 48 hours, post transfection, filtered and concentrated 10-fold using Amicon Ultra centrifugal filter device with a 100kDa cutoff. NIH 3T3 cells were incubated with concentrated retroviral supernatants supplemented with 4 μg/ml polybrene for 4 hours at 37° C. Cells were washed once with PBS and cultured in growth media for 24-36 hours to allow for viral integration.
The transduced NIH3T3 cells were subjected to analysis using fluorescence-activated cell sorting (FACS) to screen the libraries of PDE5A mutants. 24 hours prior to analysis, transduced NIH3T3 cells were plated at 1×10^5 cells per well of a 12-well plate. Cells were removed from the plate using PBS and 2 mM EDTA, washed once with PBS, and resuspended in 200 μL, PBS. […]
To identify destabilizing domains that are responsive to the PDE5A ligand, Sildenafil, a cell-based screening assay was employed in which the fluorescence of green fluorescent protein derived from Aequorea coerulescens (AcGFP) served as an indicator of PDE5A stability. […]
A library of AcGFP-PDE5A fusions i.e., C-terminal PDE5A mutants was screened using the cell-based screening assay described previously to identify C-terminal destabilizing domains. […] The stabilization ratio was calculated as the fold change in GFP intensity of the AcGFP-PDE5A construct in Sildenafil treated sample compared to vehicle alone treated sample. […]
Residue D764 was identified as a mutational hotspot from sequence analysis. […] AcGFP-PDE5A variants were evaluated for Sildenafil dependent stabilization via FACS as described previously. […] The stabilization ratio was calculated as the fold change in GFP intensity of the AcGFP-PDE5A construct in Sildenafil treated sample compared to vehicle alone treated sample. […]

[2] = tested on: HCT 116 cells transduced with the PDE5A DD derived GFP constructs; test: Response to Vardenafil, GFP expression by FACS in HCT116; assay type: cell-based, human; settings: for MFI / Stabilization ratio with Vardenafil: 48 hours, HCT116
Procedure: Mutations were created in PDE5A (535-860) catalytic domain using site directed mutagenesis and the mutants were cloned as AcGFP fusion into pELNS vector carrying mCherry marker and packaged in lentiviral vectors. HCT116 cells were transduced with the constructs and stable integrants were selected by cell sorting using mCherry marker. Cells were treated with vehicle (dimethyl sulfoxide, DMSO) or 10 μM Vardenafil (VDF) for 48 hours. Following the treatment, cells were analyzed for GFP expression using FACS. Basal expression was calculated as the ratio of GFP signal in the absence of ligand for a given cell line to auto fluorescence of parental HCT-116 cells. Stabilization ratio was calculated as the ratio of the GFP signal observed in the presence of stabilizing ligand to the signal from the same cell line in the absence of ligand.
HCT 116 cells transduced with the PDE5A DD derived GFP constructs were also tested with increasing doses of Vardenafil. The HCT116 cells were incubated for 48 hours with Vardenafil starting at a dose of 0.002 μM to 30 μM. The GFP intensity of the Vardenafil treated samples was compared to the parental untransduced HCT116 and DMSO treated cells for each construct. The mean fluorescence intensity was calculated for each sample and used to calculate the stabilization ratios as well as the basal expression for each construct. The GFP expression was measured using flow cytometry and the mean fluorescence intensity (MFI) was calculated for each sample. The stabilization ratios are shown in Table 13 and Table 14 and the basal expression is show in Table 15.

B1: PDE5AC (#42): AcGFP fused to C-terminal DD 535-860 of PDE5A (E535D, K555R, F564S, Q589R, K630R, C677R, N742S, I799T, M816A), SEQ ID NO. 28 (protein)
chain: DETRELQSLAAAVVPSAQTLRITDFSFSDSELSDLETALCTIRMFTDLNLVQNFRMKHEVLCRWILSVKKNYRKNVAYHNWRHAFNTAQCMFAALRAGKIQNKLTDLEILALLIAALSHDLDHRGVNNSYIQRSEHPLAQLYRHSIMEHHHFDQCLMILNSPGNQILSGLSIEEYKTTLKIIKQAILATDLALYIKRRGEFFELIRKSQFNLEDPHQKELFLAMLMTACDLSAITKPWPIQQRIAELVATEFFDQGDRERKELNTEPTDLMNREKKNKIPSAQVGFIDAICLQLYEALTHVSEDCFPLLDGCRKNRQKWQALAEQQ
modifications: /note=“Description of Artificial Sequence Synthetic Destabilizing Domain (DD)”
Mean Fluorescence intensity ([1]; Sildenafil (10 μM) +): 5861 | Mean Fluorescence intensity ([1]; Sildenafil (10 μM) −, vehicle alone): 1658 | Stabilization ratio ([1]; fold change in GFP intensity, Sildenafil 10 μM vs vehicle alone): 3.5 | MFI ([2]; DMSO (no Vardenafil)): 25111 | Basal (DMSO/Parental) ([2]; Table 10, GFP signal without ligand / auto fluorescence of parental HCT-116): 20.0 | Basal ([2]; Table 15, MFI with DMSO / parental HCT116, Vardenafil experiment): 12.85 | Stabilization ratio with Vardenafil ([2]; Vardenafil 0.002 μM vs DMSO): 1.0 | MFI ([2]; Vardenafil 0.002 μM): 25236 | MFI ([2]; Vardenafil 0.005 μM): 28309 | Stabilization ratio with Vardenafil ([2]; Vardenafil 0.014 μM vs DMSO): 1.4 | MFI ([2]; Vardenafil 0.014 μM): 33958 | Stabilization ratio with Vardenafil ([2]; Vardenafil 0.041 μM vs DMSO): 1.9 | MFI ([2]; Vardenafil 0.041 μM): 46882 | Stabilization ratio with Vardenafil ([2]; Vardenafil 0.123 μM vs DMSO): 3.2 | MFI ([2]; Vardenafil 0.123 μM): 81233 | Stabilization ratio with Vardenafil ([2]; Vardenafil 0.370 μM vs DMSO): 4.6 | MFI ([2]; Vardenafil 0.370 μM): 114847 | Stabilization ratio with Vardenafil ([2]; Vardenafil 1.111 μM vs DMSO): 5.4 | MFI ([2]; Vardenafil 1.111 μM): 136303 | Stabilization ratio with Vardenafil ([2]; Vardenafil 3.333 μM vs DMSO): 5.9 | MFI ([2]; Vardenafil 3.333 μM): 147512 | Stabilization ratio with Vardenafil ([2]; Vardenafil 10 μM vs DMSO): 6.4 | MFI ([2]; Vardenafil 10 μM): 161587 | Stabilization ratio with Vardenafil ([2]; Vardenafil 30 μM vs DMSO): 8.0 | MFI ([2]; Vardenafil 30 μM): 199877
